Consider 107 variants from paper PMC12102759.

To fix the notation:
B1: AZIN2 peptide 1-16 (Antizyme inhibitor 2), 16-mer library wild type / NSP3 ADRP (ORF1ab Nsp3b ADRP, residues 1023-1192) (parent)
chain 1: MAGYLSESDFVMVEEG
chain 2: not shown
B2: NEK9 peptide 736-751 (Serine/threonine-protein kinase Nek9), 16-mer library wild type / NSP9 (ORF1ab Nsp9, residues 4141-4253) (parent)
chain 1: NSSGLSIGTVFQSSSP
chain 2: NNELSPVALRQMSCAAGTTQTACTDDNALAYYNTTKGGRFVLALLSDLQDLKWARFPKSDGTGTIYTELEPPCRFVTDTPKGPKVKYLYFIKGLNNLNRGMVLGSLAATVRLQ

One test covers variants of B1. The conditions noted are these: with NSP3 ADRP (ORF1ab Nsp3b ADRP, residues 1023-1192); bait immobilised on MaxiSorp plates (10 µg), library pre-cleared on GST, 2 h binding at 4 °C, five washes; one round per day, days 1-4; value from days 2 and 3; keep out of graded; scale: average fractional NGS count over selection days 2 and 3.
For the variant chain 1 E14T, the screen value was found to be 1.06e-05.
Regarding chain 1 E14A, the screen value was 3.37e-05.
For chain 1 E14H, the screen value turned out to be 3.26e-05.
For the variant chain 1 E14V, the screen value turned out to be 1.13e-05.
For the variant chain 1 E14G, the screen value was found to be 5.95e-05.
For the variant chain 1 S8Q, the screen value was determined as 2.27e-05.
Regarding chain 1 S8D, the screen value worked out at 1.43e-05.
As to chain 1 S8F, the screen value was 4.02e-05.
Regarding chain 1 S8N, the screen value worked out at 5.33e-05.
chain 1 L5M: the screen value was found to be 1.33e-05.
For chain 1 G3S, the screen value stood at 2.71e-05.
chain 1 G3P: the screen value was 0.
Regarding chain 1 G3T, the screen value amounted to 0.
Consider chain 1 Y4F, for which the screen value turned out to be 1.08e-05.
Consider chain 1 G16M, for which the screen value was 3.8e-05.
chain 1 G16W: the screen value came to 5.19e-05.
On the same count and under the same terms, in the case of chain 1 A2M it was 0; in that of chain 1 A2H, 0; in that of chain 1 A2G, 0.
The same measure, in the same setting: in the case of chain 1 F10S it was 1.39e-05; in that of chain 1 F10W, 2.93e-05.
Same read-out and setting: with chain 1 F10D the figure was 0.
For chain 1 F10R, the screen value came out at 0.
As to chain 1 S6H, the screen value was determined as 0.
In the case of chain 1 S6Q, the screen value was 0.
With chain 1 S6W, the screen value stood at 0.
In the case of chain 1 S6G, the screen value is 0.
As for chain 1 S6T, the screen value came to 0.
For the variant chain 1 E15Y, the screen value stood at 0.
As for chain 1 E15V, the screen value came out at 2.58e-05.
Turning to chain 1 E15A, the screen value is 1.82e-05.
For chain 1 E15K, the screen value turned out to be 0.
Consider chain 1 E15M, for which the screen value is 0.
For chain 1 E15W, the screen value worked out at 0.
As to chain 1 E15F, the screen value worked out at 0.
The same measure, in the same setting: in the case of chain 1 D9I it was 2.23e-05; in that of chain 1 D9T, 2.66e-05.
For the variant chain 1 D9A, the screen value turned out to be 1.5e-05.
On the same count and under the same terms, in the case of chain 1 D9H it was 2.63e-05; in that of chain 1 M12W, 0.
As to chain 1 M12Q, the screen value came to 0.
On the same count and under the same terms, in the case of chain 1 M12G it was 0; in that of chain 1 M12D, 6.55e-05; in that of chain 1 M12P, 6.03e-05.
On the same count and under the same terms, in the case of chain 1 M12K it was 0; in that of chain 1 V11K, 2.1e-05; in that of chain 1 V11Q, 1.04e-05.
Turning to chain 1 V11N, the screen value amounted to 1.5e-05.
On to chain 1 V11R, for which the screen value was determined as 4.17e-05.
chain 1 V13E: the screen value stood at 4.94e-05.
With chain 1 V13W, the screen value came to 4.62e-05.
Same read-out and setting: in the case of chain 1 V13S it was 3.26e-05.
For chain 1 V13P, the screen value was 5.36e-05.
Same read-out and setting: with chain 1 V13A the figure was 1.13e-05; with chain 1 V13F, 1.65e-05.
As to chain 1 V13G, the screen value was found to be 0.
With chain 1 V13N, the screen value worked out at 6.59e-05.
Same read-out and setting: with chain 1 E7A the figure was 0; with chain 1 E7T, 0; with chain 1 E7S, 0.

The next test covers variants of B2. As to conditions: with NSP9 (ORF1ab Nsp9, residues 4141-4253); bait immobilised on MaxiSorp plates (10 µg), library pre-cleared on GST, 2 h binding at 4 °C, five washes; one round per day, days 1-4; value from days 2 and 3; keep out of graded; scale: average fractional NGS count over selection days 2 and 3.
As to chain 1 NSSGLSIGTVFQTSSP [chain 1 S13T], the screen value came to 0.000105.
As for chain 1 NSSGLSIGTVFQASSP [chain 1 S13A], the screen value came to 0.
Still for that read-out and setting: with chain 1 NSSGLSIGTVFQESSP [chain 1 S13E] the figure was 0.000579.
Same read-out and setting: in the case of chain 1 NSSGLSIGTVFQHSSP [chain 1 S13H] it was 8.96e-05; in that of chain 1 NSSGLSIGTVFQDSSP [chain 1 S13D], 0.000121; in that of chain 1 NSSGLSIGTVFQLSSP [chain 1 S13L], 1.28e-05.
Regarding chain 1 NSSGLSIGTVFQMSSP [chain 1 S13M], the screen value stood at 0.
The same measure, in the same setting: in the case of chain 1 NSSGLSIGTVFQGSSP [chain 1 S13G] it was 1.34e-05.
Still for that read-out and setting: with chain 1 NSSGLSSGTVFQSSSP [chain 1 I7S] the figure was 0; with chain 1 NSSGLSGGTVFQSSSP [chain 1 I7G], 0; with chain 1 NSSGLSLGTVFQSSSP [chain 1 I7L], 9.86e-05.
Turning to chain 1 NSSGLSITTVFQSSSP [chain 1 G8T], the screen value came out at 0.
On the same count and under the same terms, with chain 1 NSSGLSIDTVFQSSSP [chain 1 G8D] the figure was 0.000107.
Regarding chain 1 NSSGLSIYTVFQSSSP [chain 1 G8Y], the screen value stood at 0.
With chain 1 NGSGLSIGTVFQSSSP [chain 1 S2G], the screen value was 2.56e-05.
The same measure, in the same setting: in the case of chain 1 NQSGLSIGTVFQSSSP [chain 1 S2Q] it was 2.69e-05; in that of chain 1 NPSGLSIGTVFQSSSP [chain 1 S2P], 0.00012.
Turning to chain 1 NHSGLSIGTVFQSSSP [chain 1 S2H], the screen value worked out at 0.
The same measure, in the same setting: in the case of chain 1 NSQGLSIGTVFQSSSP [chain 1 S3Q] it was 0.000703; in that of chain 1 NSWGLSIGTVFQSSSP [chain 1 S3W], 0.000185; in that of chain 1 NSHGLSIGTVFQSSSP [chain 1 S3H], 3.04e-05.
Turning to chain 1 NSVGLSIGTVFQSSSP [chain 1 S3V], the screen value was 0.
Turning to chain 1 NSKGLSIGTVFQSSSP [chain 1 S3K], the screen value worked out at 0.
Turning to chain 1 NSEGLSIGTVFQSSSP [chain 1 S3E], the screen value was 0.000394.
Take chain 1 NSDGLSIGTVFQSSSP [chain 1 S3D]: the screen value worked out at 0.000508.
Still for that read-out and setting: with chain 1 NSMGLSIGTVFQSSSP [chain 1 S3M] the figure was 5.44e-05; with chain 1 NSSGLSIGTVFQSSKP [chain 1 S15K], 0; with chain 1 NSSGLSIGTVFQSSAP [chain 1 S15A], 2.5e-05.
On to chain 1 NSSGLSIGTVFQSSMP [chain 1 S15M], for which the screen value was 0.000159.
Turning to chain 1 NSSGLSIGTVFQSSIP [chain 1 S15I], the screen value amounted to 4.92e-05.
For chain 1 NSSGLSIGTVFQSSLP [chain 1 S15L], the screen value turned out to be 2.69e-05.
The same measure, in the same setting: with chain 1 NSSGLSIGTVFQSSGP [chain 1 S15G] the figure was 3.5e-05.
On to chain 1 NSSILSIGTVFQSSSP [chain 1 G4I], for which the screen value stood at 0.
On to chain 1 NSSWLSIGTVFQSSSP [chain 1 G4W], for which the screen value worked out at 0.
Turning to chain 1 NSSYLSIGTVFQSSSP [chain 1 G4Y], the screen value is 0.
In the case of chain 1 NSSGLSIGTVFQSDSP [chain 1 S14D], the screen value turned out to be 7.14e-05.
Take chain 1 NSSGLSIGTVFQSISP [chain 1 S14I]: the screen value is 0.0016.
chain 1 NSSGLSIGTVFQSTSP [chain 1 S14T]: the screen value came out at 0.
As for chain 1 NSSGLSIGTVFQSESP [chain 1 S14E], the screen value stood at 0.
On to chain 1 NSSGLSIGTVFQSFSP [chain 1 S14F], for which the screen value worked out at 0.000194.
On the same count and under the same terms, in the case of chain 1 NSSGLSIGTVFQSNSP [chain 1 S14N] it was 3.83e-05.
The same measure, in the same setting: with chain 1 NSSGLSIGTVFESSSP [chain 1 Q12E] the figure was 0.00594.
chain 1 NSSGLSIGTVFISSSP [chain 1 Q12I]: the screen value amounted to 0.
For the variant chain 1 NSSGLSIGTVFVSSSP [chain 1 Q12V], the screen value turned out to be 0.
With chain 1 NSSGLSIGTVFYSSSP [chain 1 Q12Y], the screen value came to 1.21e-05.
chain 1 NSSGLSIGTVFSSSSP [chain 1 Q12S]: the screen value worked out at 4.58e-05.
The same measure, in the same setting: in the case of chain 1 NSSGLSIGTVFPSSSP [chain 1 Q12P] it was 0.
